From patent US7745151B2, “Methods of determining binding between Nogo receptor and p75 neurotrophin receptor” (Children's Medical Center Corporation, priority 2002, dated 2010)

T1: CHO cells expressing full-length NgR (Homo sapiens, UniProt Q9BZR6)
T1 construct: expressed in transfected cells; host or cells: CHO cells
T1 sequence (Q9BZR6 27-473): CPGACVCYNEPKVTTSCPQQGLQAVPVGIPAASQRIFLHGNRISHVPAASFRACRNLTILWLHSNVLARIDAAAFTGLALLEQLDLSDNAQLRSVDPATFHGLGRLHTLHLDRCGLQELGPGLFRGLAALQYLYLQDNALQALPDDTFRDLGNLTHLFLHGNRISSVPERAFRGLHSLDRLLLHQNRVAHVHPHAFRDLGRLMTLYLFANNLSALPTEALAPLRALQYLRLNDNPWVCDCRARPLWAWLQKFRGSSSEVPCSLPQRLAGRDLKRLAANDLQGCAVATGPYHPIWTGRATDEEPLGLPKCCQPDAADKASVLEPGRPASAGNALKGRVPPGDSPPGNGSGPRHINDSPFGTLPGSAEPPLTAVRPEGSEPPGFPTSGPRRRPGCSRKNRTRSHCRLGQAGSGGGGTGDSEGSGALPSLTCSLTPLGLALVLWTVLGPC

B1: OM-his: myelin inhibitor protein; his-tagged OMgp (protein, UniProt P23515 25-417, looked up)
Oligodendrocyte-myelin …: ICPLQCICTERHRHVDCSGRNLSTLPSGLQENIIHLNLSYNHFTDLHNQLTQYTNLRTLDISNNRLESLPAHLPRSLWNMSAANNNIKLLDKSDTAYQWNLKYLDVSKNMLEKVVLIKNTLRSLEVLNLSSNKLWTVPTNMPSKLHIVDLSNNSLTQILPGTLINLTNLTHLYLHNNKFTFIPDQSFDQLFQLQEITLYNNRWSCDHKQNITYLLKWMMETKAHVIGTPCSTQISSLKEHNMYPTPSGFTSSLFTVSGMQTVDTINSLSVVTQPKVTKIPKQYRTKETTFGATLSKDTTFTSTDKAFVPYPEDTSTETINSHEAAAATLTIHLQDGMVTNTSLTSSTKSSPTPMTLSITSGMPNNFSEMPQQSTTLNLWREETTTNVKTPLPS
modifications: His tag
notes: his-tagged OMgp
B2: AP-p75: alkaline phosphatase (AP) fusion protein containing the extracellular domain of P75 (protein)
chain: KETCSTGLYTHSGECCKACNLGEGVAQPCGANQTVCEPCLDNVTFSDVVSATEPCKPCTECLGLQSMSAPCVEADDAVCRCAYGYYQDEETGHCEACSVCEVGSGLVFSCQDKQNTVCEECPEGTYSDEANHVDPCLPCTVCEDTERQLRECTPWADAECEEIPGRWIPRSTPPEGSDSTAPSTQEPEVPPEQDLVPSTVADMVTTVMGSSQPVVTRGTTDNLI
modifications: left off: large carriers; small tags and cut ends

How the values were obtained:
DRG neurons = test: Neurite outgrowth assay, wild type versus P75 mutant neurons; format: cell-based, mice
Excerpt: We use a neurite outgrowth assay to compare the responses of neurons from wild type mice and those carrying a mutation in the P75 gene to individual inhibitors (Lee et al., Cell 1992 May 29; 69(5):737-49). Neurite outgrowth of DRG neurons from P75 (−/−) was not inhibited by MAG-Fc.

[1] = molecular target: T1, CHO cells expressing full-length NgR; test: Cell surface binding assay of AP-p75
Excerpt: When we overexpress HA-tagged P75 and FLAG-tagged NgR into CHO cells, we find that p75 can be co-immunoprecipitated with NgR, but not with a control transmembrane protein Plexin A3. We also utilize a cell surface binding assay to better visualize the NgR/P75 interaction.
Upon expression in cerebellar granule neurons (CGNs), this truncated NgR, but not full-length NgR, blocks the inhibitory responses elicited by immobilized inhibitors.
Exemplary experimental protocols: Binding experiments: Sequence encoding the extracellular domain of rat p75 was subcloned into the expression vector AP-5 to express an AP-p75 fusion protein tagged with both a polyhistidine and a myc epitope. The resultant plasmid DNA was transfected into COS-7 cells and the secreted protein purified using nickel-Agarose resins (Qiagen). Cell surface binding with AP-p75 and other AP proteins were performed as described previously. For visualization of bound proteins, NBT and BCIP were used as AP substrates.

Molecule	neurite outgrowth inhibition (DRG neurons; neurons from P75 (-/-) mice)	neurite outgrowth inhibition (DRG neurons; wild type neurons)	binding of AP-p75 to NgR-expressing cells [1]
B1	neither of these proteins restrict neurite outgrowth	efficiently inhibited	–
B2	–	–	able to bind CHO cells expressing full-length NgR specifically
